# Test results as given in patent US20120315267A1 (GlaxoSmithKline, published 2012).
# T1: human NAP2 (human, UniProt P02775 59-128)
# T1 sequence (looked up): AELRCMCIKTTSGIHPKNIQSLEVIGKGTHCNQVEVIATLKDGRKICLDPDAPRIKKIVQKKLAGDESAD
# T2: human GCP-2 (human, UniProt P80162 38-114, limits assumed)
# T2 sequence (looked up): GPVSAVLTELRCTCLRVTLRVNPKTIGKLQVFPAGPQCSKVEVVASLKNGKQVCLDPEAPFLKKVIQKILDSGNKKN
# T3: human ENA-78 (human, UniProt P42830 37-114, limits assumed)
# T3 sequence (looked up): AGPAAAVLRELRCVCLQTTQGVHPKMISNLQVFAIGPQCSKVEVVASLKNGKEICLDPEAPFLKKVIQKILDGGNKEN
# T4: human Gro-beta (human, UniProt P19875 35-107)
# T4 sequence (looked up): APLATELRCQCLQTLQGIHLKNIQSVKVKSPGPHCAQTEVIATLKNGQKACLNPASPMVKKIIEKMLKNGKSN
# T5: human Gro-gamma (human, UniProt P19876 35-107)
# T5 sequence (looked up): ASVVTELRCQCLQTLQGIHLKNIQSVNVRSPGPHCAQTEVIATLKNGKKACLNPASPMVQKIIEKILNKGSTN
# T6: human Gro-alpha (human, UniProt P09341 35-107)
# T6 sequence (looked up): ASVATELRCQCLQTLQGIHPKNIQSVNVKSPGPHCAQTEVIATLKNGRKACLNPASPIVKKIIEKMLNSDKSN
# T7: human IL-8 (human, UniProt P10145 28-99, limits assumed)
# T7 sequence (looked up): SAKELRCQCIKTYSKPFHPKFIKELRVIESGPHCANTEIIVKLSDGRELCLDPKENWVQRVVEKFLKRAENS
# Columns and labels:
# Assay in all cases: cell-based or functional assay
# human NAP2 = target: T1, human NAP2
# human GCP-2 = target: T2, human GCP-2
# human ENA-78 = target: T3, human ENA-78
# human Gro-beta = target: T4, human Gro-beta
# human Gro-gamma = target: T5, human Gro-gamma
# human Gro-alpha = target: T6, human Gro-alpha
# human IL-8 = target: T7, human IL-8
FLIPR IC50 (human NAP2) [µg/mL],FLIPR IC50 (human GCP-2) [µg/mL],FLIPR IC50 (human ENA-78) [µg/mL],FLIPR IC50 (human Gro-beta) [µg/mL],FLIPR IC50 (human Gro-gamma) [µg/mL],FLIPR IC50 (human Gro-alpha) [µg/mL],FLIPR IC50 (human IL-8) [µg/mL],Binder
> 200,124,2.4,> 200,> 200,9.9,> 200,"7A12.1F10 (antibody, IgG1, V domains shown) VH: QVQLQQSGAELVKPGASVKLSCKASGYIFTSNDINWVRQRPEQGLEWIGWIFPGDNSTKFNEKFRDKATLTTDKSSSTAYMQLSGLTSEDSAVYFCATFYGSTYGYYFDYWGQGTTLTVSS VL: DIVMTQSHKFMSTSVGDRVSITCKASQDVGTAVAWYQQKPGQSPKLLIYWTDTRHTGVPDRFTGSGSGTDFTLTISNVESEDCVDYFCHQYNNYPLTFGAGTKLELK"
> 200,> 200,4.7,77.4,> 200,> 200,> 200,"5D2.2D10 (antibody, V domains shown) VH: QIQLVQSGPELKKPGETVKISCKASGYIFTAYGMSWVKQAPGKGLKWMGWINTYSGVPTYADHFKGRFDFSLETSASTAYLQINNLKNEDTATYFCARPTVVDPWYFDVWGTGTTVTVSS VL: DIQMTQSPASLSVSVGETVTITCRASENIYSNLAWYQQKQGKSPQLLVYAATNLGDGVPSRFSGSGSGTQYSLKINSLQSEDFGSYYCQHFWTTPWTFGGGTKLEIK"
> 200,> 200,> 200,81.6,144,> 146,2.5,"17D1.1D2 (antibody, IgG2c, V domains shown) VH: EVQLQQSGPELVKPGASVKISCKASGYTFTDYYMNWLRQSHGKSLEWIGDINPNNGGTNYNQKFKNKATLTVDKSSSTAYMELRSLTSEDSAVFYCAGLGRIFDYWGQGTTLTVSS VL: ENVLTQSPAIMSAFPGEKVTMTCRASSSVSSTYLHWYQQKSGASPKLWIYSTSDLASGVPARFSGSGSGTSYSLTISSVEAEDAATYYCQQFSGYPWTFGGGTKLEIK"
> 67,6.6,14.4,> 67,> 67,> 67,3.4,"9D12.1H4 (antibody, IgG1, V domains shown) VH: EVQLQQSGPELVKPGASVRMSCKASGNTVIDYNIHWVKQSQGKSLEWIGYINPNSGGTGYNEKFKDKATLTINKSSSTAHMDLRSLTSEDSAVYYCTRFDFWGQGTTLTVSS VL: DVLMTQTPLSLPVSLGDQASISCRSTQSIVPVNGNTHLEWYLHKPGQSPKLLIYKVSNRFSGVPDRFSGSGSGTDFTLKISRVEAEDLGVYYCFQASHVPWTFGGGTKLEIK"

# The remaining lines, values behind:
Binder,FLIPR IC50 (human NAP2) [µg/mL],FLIPR IC50 (human GCP-2) [µg/mL],FLIPR IC50 (human ENA-78) [µg/mL],FLIPR IC50 (human Gro-beta) [µg/mL],FLIPR IC50 (human Gro-gamma) [µg/mL],FLIPR IC50 (human Gro-alpha) [µg/mL],FLIPR IC50 (human IL-8) [µg/mL]
"2X907.15 (antibody, IgG1, V domains shown) VH: EVKLVESGGGLVKPGGSLKLSCAASGFTFSDYYMYWVRQSPEKRLEWVATVSDVGSYTYYSGSVRGRFTISRDNAKNNLYLQMSSLQSEDTAIYYCSRDRTLDYWGQGTSVIVTS VL: QIVLTQSPAIMSASPGEKVTITCNASSSVSYMHWFQQKPGTSPKLWIYSTSNLASGVPARFSGSGSGTSYSLTISRMEAEDAATYYCHQRSSFPPTFGGGTKLEIK",> 67,> 67,2.6,> 67,> 67,> 67,> 67
"2X810.3 (antibody, IgG1, V domains shown) VH: QIQLQQSGPEVVKPGASVKISCKASGYIFTDNYIDWVQQRPGQGLEWIGWIFPGSGNTKYNEKFKGKATLTVDTFSSTAYMQLSSLTSEDTAVYFCAREIDYDYDGFFDVWGAGTTVTVSS VL: DIVMTPSHTFMSTSVGDRVIITSKASQDVGSAVAWYQQKPGQSPTLLIYWASTRHTGVPDRFTGSGSGTDFTLTISNLQSEDLADYFCQQYSTYPLTFGAGTKLELK",> 67,24.6,14.6,> 67,> 67,> 67,> 67
"2B12.1E1 (antibody, IgG2c, V domains shown) VH: EVQLQQSGPELVKPGASVKISCKASGYTFTDYYMNWVKQSHGKSLEWIGDINPNNGNTNYNQKFKGKATLTVDKSSSTAYMEFRSLTSEDSAVYYCAGLGRIFDYWGQGTTLTVSS VL: ENVLTQSPAIMSASPGEKVTMTCRASSSVSSTFLHWYQQKSGASPKLWIYSTSDLASGVPARFSGSGSGTSYSLTISSVEAEDAATYYCQQYSGYPWTFGGGTKLEIK",> 67,40.9,> 67,> 65.5,> 67,> 67,1.6
"1L351.17 (antibody, IgG2b, V domains shown) VH: QAYLQQSGAELVRPGASVKMSCKASGYTFTSYNMHWVKQTPRQGLEWIGAIYPGNGDTSYNQKFKGKATLTVDKSSSTAYMQLSSLTSEDSAVYFCARDLYYFDYWGQGTTLTVSS VL: ENVLTQSPAIMSAFPGEKVTMTCRASSSVSSTYLHWYQQKSGASPKLWIYSTSDLASGVPARFSGSGSGTSYSLTISSVEAEDAATYYCQQFSGYPWTFGGGTKLEIK",> 67,> 67,> 67,1.02,3.17,1.92,> 67
"1A1.4C6 (antibody, IgG1, V domains shown) VH: EVQLQQSGPELVKPGASVKISCKASGYTFIDYYMNWVKQSQGKSLEWIGDVNPDDGDTTYNQQFKDKATLTVDKSSSTAYMELRSLTSEDSAVYYCARDDRTSGYFDVWGTGTTVTVSS VL: DIQMTQSTSSLSASLGDRVTISCRASQDIRNYLNWFQQKPDGTVKLLIYYTSIVHSRVPSRFSGSGSGTDYSLTINNLDQEDIATYFCQQANTLPWTFGGGTKLETK",123,11.2,12.3,> 168,19.2,2.4,> 200
"2X352.3 (antibody, IgG1, V domains shown) VH: QIQLVQSGPELKKPGETVKISCKASGYTLTYYGIHWVTQTPGKGLNWMGWINTNTGEPTYVEEFKGRFAFSLETSASTAYLQITDLKNEDTATYFCAKATYDGYSDYWGQGTTLTVSS VL: DIQMTQSPASLSVSVGESVTITCRASENIYSNLAWYQQKQGKSPQLLVYDATNLAHGVPSRFSGSGSGTQFSLRINSLQSEDFGSYYCQHFWGTPLTFGAGTRLELK",> 67,> 67,4.99,1.12,7.43,2.06,> 67
"1L132.23 (antibody, IgG1, V domains shown) VH: QVQLQQPGAELVKPGASVKVSCKASGYTFTNYWMHWVRQRPGQGLEWIGRIHPSDNDTNYNQKFKDKATLTVDKSSNTAYMQLSSLTSEDSAVYYCAIGVYDGFIGLWGQGTSVTVSS VL: DIQMTQSPASQSASLGESVTITCLASQTIGTWLAWYQQKPGKSPQLLIYAATRLADGVPSRFSGSGSGTKFSFKISSLQAEDFVSYYCQQLSSTPWTFGGGTKLEIK",> 67,> 67,> 67,0.69,> 67,> 67,> 67
